The values that follow come from PMC7718890.

The target in this data set is CarD WT;MTB RNAP (WT) (Mycobacterium …, UniProt P9WJG3;P9WGZ1;P9WGY9;P9WGY7;P9WGY5 1-162;1-347;1-1178;1-1316;1-110, |). The experiment in a line: competition (fluorescence polarization). The settings on record: protein: recombinant;recombinant; tags: ;; copies: 1;2;1;1;1; blunt. For orientation: Polarisation of emitted light reports the rotation of a fluorescent probe.

B1: rrnAP3 native 61 bp (dsDNA)
DNA 1: GATGACCGAACCTGGTCTTGACTCCATTGCCGGATTTGTATTAGACTGGCAGGGTTGCCCC
DNA 2: GGGGCAACCCTGCCAGTCTAATACAAATCCGGCAATGGAGTCAAGACCAGGTTCGGTCATC
As usually defined, the Ki is a dissociation constant, usually derived from enzyme kinetics or from competition with a known ligand. As for B1, the Ki came to 8 ± 1 nM.
